Changes are numbered by the printed parent chain. Names may count otherwise.
B1: hnRNPA2 LC S285C with a paramagnetic label (MTSL) at the engineered cysteine (domain or fragment, human, UniProt P22626-2 190-341, looked up)
chain: GRGGNFGFGDSRGGGGNFGPGPGSNFRGGSDGYGSGRGFGDGYNGYGGGPGGGNFGGSPGYGGGRGGYGGGGPGYGNQGGGYGGGYDNYGGGNYGCGNYNDFGNYNQQPSNYGPMKSGNFGGSRNMGGPYGGGNYGPGGSGGSGGYGGRSRY
modifications: small (~120 Da) paramagnetic label (MTSL) at the engineered cysteine 285
notes: hnRNPA2 low complexity domain, human, residues 190–341; Purified and labeled as described in Ryan et al, 2018; source: E. coli BL21 Star (DE3), purified from inclusion bodies (His-tag purification), MTSL-labeled
B2: hnRNPA2 LC S329C with a paramagnetic label (MTSL) at the engineered cysteine (domain or fragment, human, UniProt P22626-2 190-341, looked up)
chain: B1 chain with C96S, S140C
modifications: small (~120 Da) paramagnetic label (MTSL) at the engineered cysteine 329
notes: as for B1

Biological target: T1, ch‐TOG (CKAP5) TOG domain 1 (TOG D1, residues 1–250) (UniProt Q14008 1-250, AlexaFluor 555 or 405 (NHS ester) on ~1% of the protein in the droplet assays; 2H 15N labeled for the PRE experiments)
T1 construct: microtubule-associated protein ch-TOG (CKAP5), TOG domain 1, residues 1–250; also called TOG domain 1 (D1); source: E. coli BL21 Star (DE3), purified (HisTrap, Superdex 75, TEV cleavage, second HisTrap)
T1 sequence (Q14008 1-250): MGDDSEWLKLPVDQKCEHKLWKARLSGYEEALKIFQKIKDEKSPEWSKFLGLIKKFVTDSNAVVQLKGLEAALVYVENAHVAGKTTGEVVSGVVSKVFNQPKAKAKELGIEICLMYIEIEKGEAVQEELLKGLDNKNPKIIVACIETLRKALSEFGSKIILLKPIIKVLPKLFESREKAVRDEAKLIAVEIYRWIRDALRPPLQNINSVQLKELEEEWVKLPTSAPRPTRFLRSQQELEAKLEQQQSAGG
Experiment: NMR paramagnetic relaxation enhancement (PRE); TROSY-based 1HN R2 at 850 MHz, 25°C; NMR-invisible hnRNPA2 LC with a paramagnetic label at S285C or S329C mixed with 2H 15N TOG D1; paramagnetic against diamagnetic samples
Details: both partners purified

Binder | Kd [µM]
B1 | > 100
B2 | > 100

Source: publication PMC7849316, “Tyrosine phosphorylation regulates hnRNPA2 granule protein partitioning and reduces neurodegeneration” (The EMBO Journal, 2020)
